Results taken from patent US20200164083A1 (priority 2016, published 2020).
Read-outs that look alike come from different tables or passages of the source.

How the values were obtained:
[1] = test system: Zucker diabetic fatty rats; assay: Chronic glucoregulatory effects in diabetic ZDF rats; type: in vivo; settings: single s.c. dose
Experimental: A total of 55 male Zucker diabetic fatty rats (ZDF-Lepr^fa/Crl) 6 weeks of age, and 180-200 gram (Charles River, USA) were single-housed and blood glucose and body weight were monitored bi-weekly for 2-4 weeks. Based on morning-fed blood glucose, outliers were excluded and 40 diabetic rats (average weight 340 g, blood glucose 9.7 to 22.5 mM, average 16.2 mM) were stratified into 4 groups of n=10. […]
Body-weights were monitored daily from day −3 throughout the study. Food and water intake were monitored on day −3 and daily for the first 11 days after the first dose then bi-weekly for the rest of the study period. Blood sampling was performed for pharmacokinetic studies 2 days after the first dose and then once weekly. HbA1c was measured day −3, and days 26 and 55 before OGTT, and the gastric emptying test was performed on day 26. For the OGTT, rats were semi-fasted overnight (60%) then PO glucose (2 g/kg in 10 mL) was administered at t=0. Blood glucose and insulin were measured at t=−60, −15, 0, 15, 30, 60 and 120 minutes after the glucose challenge. Gastric emptying was measured by administration of acetaminophen (100 mg/kg) with the OGTT on day 26, and blood levels were measured at 15, 30, 60 and 120 min.

[2] = rat, in vivo, sc
Experimental: Each syringe contained 0.45 or 0.98 μmol peptide at 1.9 μmol peptide g^−1 slurry. The syringes were weighed prior to and after dosing to verify the mass delivered to each rat. Blood samples (300 μL) were drawn and the serum was frozen at −80° C. until analysis.
Frozen serum samples were thawed on ice and diluted between 5 and 20-fold in the provided rat serum. […] Data replicates were averaged and fitted to appropriate pharmacokinetic models.

[3] = pH 9.4
[4] = mouse, in vivo
Experimental: B. The small amounts of microspheres needed in the mouse required a diluent to allow accurate dosing. […] This diluent served to keep the microspheres in a homogeneous suspension prior to and during administration and allowed dosing of convenient volumes. […] Syringes (0.5 mL U-100 insulin syringe with fixed 29 g×½″ needle, BD) were filled with the suspended microspheres under aseptic conditions. The needle assembly of each syringe was purged of air and weighed prior to and following dosing to determine the average mass of slurry delivered to each mouse.
Serum was prepared and frozen at −80° C. until analysis.
(§1) Serum samples were treated with 3 vol of ACN and centrifuged. The supernatant was dried, reconstituted and applied to a HPLC MS/MS system. The sample was eluted by a water/ACN gradient containing 0.1% formic acid. […] HPLC-MS/MS analyses were carried out on a Sciex 5500 QTrap® mass spectrometer coupled with a Shimadzu HPLC system. The Shimadzu HPLC system consisted of two LC-30AD HPLC pumps and a SIL-30AC autosampler with a 100-μL loop installed. […] The mass spectrometer was operated in positive electrospray ionization mode and the resolution setting used was the unit for both Q1 and Q3. […] Peak-area integrations were performed using Analyst software (version 1.5.2) from Sciex.
(§2) C vs. t curves (text) were analyzed using GraphPad Prism by non-linear regression of eq X (text) with weighting by 1/SD2; since ka>>k1 we modeled the single exponential phase of the terminal half-life using data points later than the first few days.

[5] = rat, in vivo
Experimental: The content of each syringe was administered SC in the flank of six cannulated male Sprague Dawley rats (average weight 270 g).
as §1, §2

hydrogel-[N28Q]exenatide microspheres R^1=CN: PEG hydrogel microspheres coupled with Nα-[1-cyano-7-azido-2-heptyloxycarbonyl]-[N28Q]exenatide
control of blood glucose [1]: effective at controlling blood glucose for at least one month | t1/2 [2]: 31.7 days | half-life of first-order release of free peptide [3]: 0.688 days | AUCinf [4]: 800 ± 323 nM-hr | Cmax [4]: 0.81 nM | Dose adjusted: Cmax, 0 [4]: 0.18 nM/(μmol/kg) | k × 10^4 ± SE [4]: 9.5 ± 1.0 h^−1 | t1/2 [4]: 30.4 days | AUCinf [5]: 448 ± 91 nM-hr | Cmax [5]: 0.36 nM | Dose adjusted: Cmax, 0 [5]: 0.17 nM/(μmol/kg) | k × 10^4 ± SE [5]: 7.8 ± 1.3 h^−1 | t1/2 [5]: 36.8 days | t1/2,β ([5]; sc): 36.7 days
